assay: soluble on expression in E. coli; label from the status in PepcDB or PDB records

Soluble on expression in E. coli, soluble:
MTPVQLKNYLEQLVGNQIKTSTMIWGPPGIGKSSIVAQIAEEGKLRFIDLRLSQLAPTDLRGLPVAIPTSKTKPQTGTSAWYPPEFLPKDGAGILFLDELNMAPPAMQGVAQQLILDRRVGSYEVPTDWFIWAAGNRKEDRASVFEMPAPLANRFLHLDVQPDFESFKQYALEQKYHEQVIAFLSFRPGLIHKLDLQRPAWPSPRSWAIANGLHQVNLDVSPAVGEGCAAEFSAFVQLYKDLPDLEAIFRGQGQNIGFPTEPSSGYASTIGLAVRAKDATAGVNAFHWLTDKADSEWVQLFVTDMAGQLRRAGHLGALSIMAKKEPKLKQFMQGYQELLAILEHHHHHH
MSLQGKFQPTWESLANYKIPEWFRNVKFGIWAHWGPQCVEGSGDWMARSLYMENSPEYRHHIANYGHPSEFGFKDIIPLWKAEKWDPDKLVAFYKKIGAQYFFALGNHHDNMDLWDSKYQPWNSVNMGPKKDILKGWERAARKHGLYFGVSLHADHAWSWYETSQRHDTQGPKKGIPYDGKLTKADGKGKWWEGYDPQDLYAQNHPLSQDSWDNGTIHRQWAWGNGVCLPTQEYCTNFYNRTLDVINRYNPDLLYFDVTVAPFYPISDAGLKIAAHFYNHNMSMQKGKLNAVMFGKILDANQRKALVWDVERGAPNKIIDEPWQSCSCLGGWHYNTSIYNNNQYKSAADVVKLLVDIVSKNGNLLLSVPLRADGTFDEKEEKILNEFGNWMNINKEAIYQTRPWKIFGEGPIADKDVQLNAQGFNEWAYSKADAKEIRFTQTDKNLYATVLGWPEDGKILIRSLAEGNGLYPTKIGRVELLGYGKVSFTRTDKGLVVDIPAKSLKNIAPVLKIRKEGHHHHHH
MAYQVTTFYHFTRLNCLAEKQSRWQELGDRLGLKGTILLAEEGVNATIAGESAAIEEMVKIMAADLGLTSVPQRHSWAKTIPFQRMKVKIKPEIVSLGQPQVNPEKQVGTYVSPQQWNQLLQDPDVVVIDTRNDYEVAIGTFQGAVNPCTKKFRQFPDYVKNNLDQQKNKKVAMFCTGGIRCEKASAYLLEEGFAEVYHLRGGILHYLETIAPEESLWQGECFVFDERVAVQEGLKVGSHALCDHCGYPLRVGDLAEIRYAVRHCPQCGLTVAVSNELLEHHHHHH
SIRTSFIKLPGSDGSRYCDSWRLAAETNNVGTWDLIPSICVDSVAEYLNGDQFLSDYSVIVDYALAFAKSVEISGDGKDVWIFDIDETLLTNIDYYKAHGYGSEPYDDNKFSEWVEQGTAPAFDASLRLYNALKKLGFTIILLTGRDEHQRTSTETNLRDAGYSGWERLLLRGPNDQGKSATNYKSEQRSKLIEEGFKIRGNSGDQWSDLQGFAVADRSFKVPNPMYYIP
MAHHHHHHMSKLIKLDCGVQHYAWGKEAAESYVAKMKGEGNKEGKYAELWVGTHPNCPSKTFSGQNLDDFLKNDNNMSRFVHPKQQADPRFRDTVPFLLKLLSVQTALSIQAHPNKQLAEKLHRENPEKYKDPNHKPELVVALTPFEALCCFRPLKDILEFLESASPLKTLLGPAADVLPGEVEDSEAIKHMMDIVYNTDAKKHAEALQEHAEELRSRGGEMTKEDSVFLRVLYQYPDDMGCWMVYFLNYVQLAPGEGLFLADSEPHAYLFGDSVEIMACSDNVVRAGLTPKWKDVPTLLRMLRYGTDGLERAKFERYRAPEGSEWELQHYSPPREFQDFSLYRIEHRVERQGQTHIKLPTVGLGFCVEGCGIVNGERVRLGECFLVPYGDLKIEAFGDFQIFVASMNYSLHSASHM

Soluble on expression in E. coli, not soluble:
MVKANVQAIDQLDAEQLGSGMVITDRQLSIVAVSEPTPRWLGFAKNELVGRPVGVLFSAEWSAALLDGIAEAVKKDGCWQGEARHVAKSGKAYTSWMNVYRLSGSEGEWLVWHFVEQTAMPPADRPTTSELLGVIYDSAPFAVVPVAADGTVQDWGLSAERLFGRRKEEAVGRPIWSLFRCGSQTWLPFPPKEQRCGEGMVQRRDGTSANVSYTVIPMLQADGYIVLVEDETKQKQKEAERRRQVELAKKIQQNLLTPLIQNEAVTMDAVYIPSDDLSGDIYACYQIDLYRYGVIVIDVMGHGISSALVSMLLRSLLRGLIVRVIDPVSVASELEKHVQTLFPDEANDIRHLFSMIYLVIDTKERKIEYTNAGHPAGLLVFDDGSVHELDKGGLAIGSPFSLPFEKGVIHYDKRARLLLYTDGILEEIDPSILQSIEKIRSCTQMCRHLPDKRFLERLISQGPPLVSPSDDICLLSITVHG
MNQIIENAFVKVEVSPHGAELQSIFNKQFHLEYLWQGDPAVWPRKAPVLFPIVGKVKDNQYTISGKTYSLSQHGFARDNAFTLVSATDTTLVYRLTHSEDSFKNFPYEFELDISYSIEHSILKVAYKIHNSSGTSDLYYSIGAHPGFRCPLVEGETFEDYYLEFEKAEKLNRVLLDGGLRGDQTEPVPLTNNKLPLSVNLFGSKDAIVVSGLHSERISLKSNKSVHGLHFDYKNYPWFGIWSKPGPFVCLEPWMGVADDIHAAGDFIKKESIQFLQPKAEALFTYSIELFLEHHHHHH
MATIHPPAYLLDQAKRRFTPSFNNFPGMSLVEHMLLNTKFPEKKLAEPPPGSGLKPVVGDAGLPILGHMIEMLRGGPDYLMFLYKTKGPVVFGDSAVLPGVAALGPDAAQVIYSNRNKDYSQQGWVPVIGPFFHRGLMLLDFEEHMFHRRIMQEAFVRSRLAGYLEQMDRVVSRVVADDWVVNDARFLVYPAMKALTLDIASMVFMGHEPGTDHELVTKVNKAFTITTRAGNAVIRTSVPPFTWWRGLRARELLENYFTARVKERREASGNDLLTVLCQTEDDDGNRFSDADIVNHMIFLMMAAHDTSTSTATTMAYQLAAHPEWQQRCRDESDRHGDGPLDIESLEQLESLDLVMNESIRLVTPVQWAMRQTVRDTELLGYYLPKGTNVIAYPGMNHRLPEIWTDPLTFDPERFTEPRNEHKRHRYAFTPFGGGVHKCIGMVFDQLEIKTILHRLLRRYRLELSRPDYQPRWDYSAMPIPMDGMPIVLRPR
MGDIEGSSSAAQSAQPEETGETNADKTGFFTRIMDAFSSGESQQEPTLGGASAAPVPVPGILNLRRMRVEDVAIPTAEIVSVPLTVSKEELVHVFRDSGMTRIPVYENTLDTPLGFVHLKDFALTHGFNGNSTQFDLRSMLRPLLFVPPSMPIGVLLAKMQTERRHMALVIDEYGGVDGLLTIEDLIEQVVGEIEDEHDTDEAQTWVKERPGCYIAQARTPLDEFETEIGRSLTNHEDVDEEEIDTLGGLVFMLSGRVPARGEVVPHPDGVEFEVIDADPRRIKRLRVMIPDAAE
MAHHHHHHMFSSSTGAGAAAAAKPSAGPPSVALATVTVNEDPNIEVLLASKRIQKLTRATDALIARDFVLREEEAILDDLEAYIISLESEVRKAEFQTEELRSRSSLLRPGKRCAIAGENVELSALWNAYGSDMGYLVKRHSLRLAVLEKALATVSTRNPELPVPKPLPPPPVTKTSKTMSAMRDMSQRQKAPS
QQRFLNIATDGRLSPKQKSNFLALEAEACIPYMPISEALREAMSDGVICDMFEGHAPFKPRYVLPDYAKFLSQGSEYLELSPAEDFDDALN
MGSDKIHHHHHHMADTFLFRVHRSQILPALNAVFEAVDPRSNIPILQNVLLSPNAERLRLSGTNMTVEVETSCDLLESASGNPLTLSGKALLDIVKSFSEVAEIEFSFDDLRGQVRVKSGRSRFLLATLHADQFPTIASLASGKSVAVDMPSLISAIARVKYALFDHKDRAYLSGIFIHPEEGENKIAVVAADGHNLAVVRFPCEAGTTFPGAIIPIKAIDAIRRLFGETKASAQVKISDEMIQICCHDVRLTSKLIDAVYPDYDVAIPKDNTSRIIVDAKHLINAVHRVCLVKKDDKRDTIKLVGSNGMLQVSMAATDGEEAVEEIAAEYNGPQIRIGFNGDYLKDALSSIKTTDVAINLLTESSPGLLTPTVGTDELYVVYPRVLPHD
MGSDKIHHHHHHMAKDITLRQLRYFIAAARAGQFSMAATNEHVSQSAITNAVIALEQALGTKLFDRGAHGVTMTVDGHDFYHHARHVLDSVRDAMHKPRAGARATSGTVRIAASYAVLGYFLPELLARFRASFPAIELDLRDMDRAVIENAVLDGTIDLGVTLVSNTPRLDAFEHRILIRSRRQLWTAPSHPLAHAASMSLADIAMHPYILLTVDEGEASTTRYWQAKGMQPNIAFRTGSMEAVRGLVANGFGVTVLSDMLFRAWSLDGTRIDARPVVDSIPPMEVGLIWRPGAALAPAAQQLRHFLIQVNSGEAD
MMICGVFCMYKERKRMTKKELALEYHKKGYNCTQAVACAFCGEFGVSEEEMYKIAEGFGLGMGMMDTCGALTGLFMLIGMKNSGGVEQAGKTKADTYKKTREYAAKFKEINGSVYCKELKGVETGKILAPCDKCILDAVELAEQFLKEN
MGSDKIHHHHHHMTLKDIAEMAGVSTMTVSNVINGKTSRVSQKTRDKINSIIEEYNYVPNMNARSLSNNSSHIIGVVTFLEEKEYASGYNYFENPYVSTMIGTIETELHKNGYFTMLQSVSRSSDILSLVKNWNVDGMILVFPTSAQNLEKLMDAANCPIATFDSNYSHPNLINVISDDEKGLYLSTKYMINHGHTEIAFVADYEGNIVLTKRFNGYKKALEDSHIPFRPEYIFSYPPSYEGGIEAGRAIAGSKSPITAVVTTADICAIGIMEGARLGGYRVPIDLSVIGYDNLNLCQYTVPKLTSVSQNVPKKARLATELLLKKIHDNESDSNLGEIIDVEIVDRQSVISLY
MGSDKIHHHHHHMEVVGRSRAKAIIETHLNDSLVYFSDHVRILKCNPYCTGVTYLKEHGVYQWIFQVNDPRENPITAVFFVTQNEEHLDSSRTVPAGPVSEEESFPDSAVSGRCIQWVNAPQVPDVPLKEKNTFVGQANTRICLYPLEDRRTEVHFETDITLDFELSFPLNLMPEGILKFMTEAVMSKIMQQATESMLCQVQSDLCCCTTAELDASGGKV
MGSDKIHHHHHHMRVKYPSIPHLPWSPGLQNDDRRITSLSGFIGKEVVVTEKLDGENTSLYRDDLHARSLDMRPHPSRTWVKAERGRVAHDIPLGWRFCGENVYAVHSLKYDDLDGYFYLFSVWDDLNVSRPWDEVRGWAERLSLPTPRELYRGPWDEAALQALDPDPERMEGYVVRVTAAIPYADFGRKVAKWVRRGHVQTDQHWLSQPVEPNGLKRQEQS
MDITKADEPVIDEKDYPKPSDAELKAKLTPLQYSVTQNKHTERSFSNEYWDNFQPGIYVDITTGEPVFSSNDKFESGCGWPSFTKPIIKDVVHYETDNSFNMQRTEVLSRAGNAHLGHVFDDGPKDKGGLRYCINSASIKFIPLAEMEKAGYGYLIQSIKK
MRAELNQGLIDFLKASPTPFHATASLARRLEAAGYRRLDERDAWHTETGGRYYVTRNDSSLIAIRLGRRSPLESGFRLVGAHTDSPCLRVKPNPEIARNGFLQLGVEVYGGALFAPWFDRDLSLAGRVTFRANGKLESRLVDFRKAIAVIPNLAIHLNRAANEGWPINAQNELPPIIAQLAPGEAADFRLLLDEQLLREHGITADVVLDYELSFYDTQSAAVVGLNDEFIAGARLDNLLSCHAGLEALLNAEGDENCILVCTDHEEVGSCSHCGADGPFLEQVLRRLLPEGDAFSRAIQRSLLVSADNAHGVHPNYADRHDANHGPALNGGPVIKINSNQRYATNSETAGFFRHLCQDSEVPVQSFVTRSDMGCGSTIGPITASQVGVRTVDIGLPTFAMHSIRELAGSHDLAHLVKVLGAFYASSELP

Source: the DeepSol protein solubility set
